Patent US20220227830A1, “QD DOSING OF GIP RECEPTOR AGONIST PEPTIDE COMPOUNDS AND USES THEREOF” (Takeda Pharmaceutical Company Limited, priority 2020, published 2022)
Starred links: 1 amine or outer side, 2 acyl side, 3 side chain; linkers in the order of their positions; H or OH if unused. Non-standard residues stand in square brackets, D forms with d. Groups on a side chain read outwards from the residue. No end group written: not given here. *: point of attachment. G2E3 = linker of 2 Gly and 3 Glu (read GGEEE); C15 diacid = O=C(O)CCCCCCCCCCCCCC(=O)*; γGlu = O=C(O)[C@H](CCC(=O)[*:2])N[*:1]; NMeY = CN[C@@H](Cc1ccc(O)cc1)C(=O)O; AEEA = NCCOCCOCC(=O)O; Aib = CC(C)(N)C(=O)O

T1: full-length human GIPR with an N-terminal FLAG tag (human, UniProt P48546 22-466)
T1 sequence (looked up): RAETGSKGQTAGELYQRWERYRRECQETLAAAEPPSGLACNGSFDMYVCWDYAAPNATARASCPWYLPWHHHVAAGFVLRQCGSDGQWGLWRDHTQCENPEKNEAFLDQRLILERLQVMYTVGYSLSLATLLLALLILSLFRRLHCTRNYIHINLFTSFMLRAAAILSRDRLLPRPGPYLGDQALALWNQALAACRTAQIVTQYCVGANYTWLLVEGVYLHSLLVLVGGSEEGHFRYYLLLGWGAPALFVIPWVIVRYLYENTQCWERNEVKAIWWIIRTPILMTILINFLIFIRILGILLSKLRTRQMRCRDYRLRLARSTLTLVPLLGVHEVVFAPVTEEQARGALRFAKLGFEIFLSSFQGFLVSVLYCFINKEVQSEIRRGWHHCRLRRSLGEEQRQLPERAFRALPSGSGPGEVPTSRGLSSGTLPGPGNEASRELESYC

B1: Compound 36 (peptide)
peptide: YXEGTFISDYSIALDKXHQXDFVNWLLAXK
modifications: not fully specified; Me-Tyr1; Aib 2,17,20; Km29 = Lys(2OEGgE-C15DA); position 21 printed 'O' in Table 3; C-term OH
B2: Compound 26 (peptide)
peptide: [NMeY][Aib]EGTFISDYSIAK([AEEA-AEEA-γGlu-γGlu-C15 diacid])DR[Aib]AQ[Aib]NFVNWLLAQK-OH
modifications: N-terminus assumed
SMILES: CC[C@H](C)[C@H](NC(=O)[C@H](CO)NC(=O)[C@H](Cc1ccc(O)cc1)NC(=O)[C@H](CC(=O)O)NC(=O)[C@H](CO)NC(=O)[C@@H](NC(=O)[C@H](Cc1ccccc1)NC(=O)[C@@H](NC(=O)CNC(=O)[C@H](CCC(=O)O)NC(=O)C(C)(C)NC(=O)[C@H](Cc1ccc(O)cc1)NC)[C@@H](C)O)[C@@H](C)CC)C(=O)N[C@@H](C)C(=O)N[C@@H](CCCCNC(=O)COCCOCCNC(=O)COCCOCCNC(=O)CC[C@H](NC(=O)CC[C@H](NC(=O)CCCCCCCCCCCCCC(=O)O)C(=O)O)C(=O)O)C(=O)N[C@@H](CC(=O)O)C(=O)N[C@@H](CCCNC(=N)N)C(=O)NC(C)(C)C(=O)N[C@@H](C)C(=O)N[C@@H](CCC(N)=O)C(=O)NC(C)(C)C(=O)N[C@@H](CC(N)=O)C(=O)N[C@@H](Cc1ccccc1)C(=O)N[C@H](C(=O)N[C@@H](CC(N)=O)C(=O)N[C@@H](Cc1c[nH]c2ccccc12)C(=O)N[C@@H](CC(C)C)C(=O)N[C@@H](CC(C)C)C(=O)N[C@@H](C)C(=O)N[C@@H](CCC(N)=O)C(=O)N[C@@H](CCCCN)C(=O)O)C(C)C
B3: Compound 28 (peptide)
peptide: [NMeY][Aib]EGTFISDYSIAK([AEEA-γGlu-γGlu-γGlu-C15 diacid])DR[Aib]AQ[Aib]NFVNWLL[Aib]QK-NH2
modifications: N-terminus assumed
SMILES: CC[C@H](C)[C@H](NC(=O)[C@H](CO)NC(=O)[C@H](Cc1ccc(O)cc1)NC(=O)[C@H](CC(=O)O)NC(=O)[C@H](CO)NC(=O)[C@@H](NC(=O)[C@H](Cc1ccccc1)NC(=O)[C@@H](NC(=O)CNC(=O)[C@H](CCC(=O)O)NC(=O)C(C)(C)NC(=O)[C@H](Cc1ccc(O)cc1)NC)[C@@H](C)O)[C@@H](C)CC)C(=O)N[C@@H](C)C(=O)N[C@@H](CCCCNC(=O)COCCOCCNC(=O)CC[C@H](NC(=O)CC[C@H](NC(=O)CC[C@H](NC(=O)CCCCCCCCCCCCCC(=O)O)C(=O)O)C(=O)O)C(=O)O)C(=O)N[C@@H](CC(=O)O)C(=O)N[C@@H](CCCNC(=N)N)C(=O)NC(C)(C)C(=O)N[C@@H](C)C(=O)N[C@@H](CCC(N)=O)C(=O)NC(C)(C)C(=O)N[C@@H](CC(N)=O)C(=O)N[C@@H](Cc1ccccc1)C(=O)N[C@H](C(=O)N[C@@H](CC(N)=O)C(=O)N[C@@H](Cc1c[nH]c2ccccc12)C(=O)N[C@@H](CC(C)C)C(=O)N[C@@H](CC(C)C)C(=O)NC(C)(C)C(=O)N[C@@H](CCC(N)=O)C(=O)N[C@@H](CCCCN)C(N)=O)C(C)C
B4: Compound 27 (peptide)
peptide: [NMeY][Aib]EGTFISDYSIALDR[Aib]AQ[Aib]K([AEEA-AEEA-γGlu-γGlu-C15 diacid])FVNWLLAQK-OH
modifications: N-terminus assumed
SMILES: CC[C@H](C)[C@H](NC(=O)[C@H](CO)NC(=O)[C@H](Cc1ccc(O)cc1)NC(=O)[C@H](CC(=O)O)NC(=O)[C@H](CO)NC(=O)[C@@H](NC(=O)[C@H](Cc1ccccc1)NC(=O)[C@@H](NC(=O)CNC(=O)[C@H](CCC(=O)O)NC(=O)C(C)(C)NC(=O)[C@H](Cc1ccc(O)cc1)NC)[C@@H](C)O)[C@@H](C)CC)C(=O)N[C@@H](C)C(=O)N[C@@H](CC(C)C)C(=O)N[C@@H](CC(=O)O)C(=O)N[C@@H](CCCNC(=N)N)C(=O)NC(C)(C)C(=O)N[C@@H](C)C(=O)N[C@@H](CCC(N)=O)C(=O)NC(C)(C)C(=O)N[C@@H](CCCCNC(=O)COCCOCCNC(=O)COCCOCCNC(=O)CC[C@H](NC(=O)CC[C@H](NC(=O)CCCCCCCCCCCCCC(=O)O)C(=O)O)C(=O)O)C(=O)N[C@@H](Cc1ccccc1)C(=O)N[C@H](C(=O)N[C@@H](CC(N)=O)C(=O)N[C@@H](Cc1c[nH]c2ccccc12)C(=O)N[C@@H](CC(C)C)C(=O)N[C@@H](CC(C)C)C(=O)N[C@@H](C)C(=O)N[C@@H](CCC(N)=O)C(=O)N[C@@H](CCCCN)C(=O)O)C(C)C

Legend:
[1] = biological target: T1, full-length human GIPR with an …; test: cell-based or functional assay
[2] = biological target: full-length human GLP-1R with an N-terminal FLAG tag (human, UniProt P43220 24-463); test: cell-based or functional assay

| Binder | Human GIPR cAMP, HEK293T EC50 [1] | Human GLP1R cAMP HEK293T EC50 [2] |
| --- | --- | --- |
| [NMeY][Aib]EGTFISDYSIALDR[Aib]AQ[Aib]NFVNWLLAK([AEEA-AEEA-γGlu-C15 diacid])K-OH (not fully specified) [Compound 34] | 0.3 pM | 117 nM |
| B1 | 1 pM | 25.1 nM |
| [NMeY][Aib]EGTFISDYSIALDR[Aib]AQ[Aib]NFVNWLLAQK([G2E3-C15 diacid])PSSGAPPPS-OH [Compound 32] | 0.2 pM | 4.73 nM |
| Me-Y[Aib]EGTFISDYSIALDR[Aib]AQ[Aib]K([AEEA-γGlu-γGlu-γGlu-C15 diacid])FVNWLLAQK-NH2 [Compound 24] | 0.4 pM | 16.9 nM |
| [NMeY][Aib]EGTFISDYSIALDR[Aib]AQ[Aib]K([G2E3-C15 diacid])FVNWLLAQK-NH2 [Compound 31] | 0.2 pM | 0.776 nM |
| [NMeY][Aib]EGTFISDYSIALDRK([AEEA-AEEA-γGlu-C15 diacid])HQ[Aib]NFVNWLLAQS-OH (also: Me-Tyr methyl position not given here) [Compound 37] | 0.2 pM | 43.7 nM |
| B2 | 0.3 pM | 1000 nM |
| B3 | 0.1 pM | 60.3 nM |
| Me-Y[Aib]EGTFISDYSIAK([2OEG-γGlu-γGlu-C15 diacid])DR[Aib]AQ[Aib]NFVNWLLAQK-NH2 [Compound 22] | 0.3 pM | 631 nM |
| B4 | 0.6 pM | 145 nM |
| Me-Y[Aib]EGTFISDYSIAK([AEEA-γGlu-γGlu-γGlu-C15 diacid])DR[Aib]AQ[Aib]NFVNWLLAQK-NH2 [Compound 23] | 0.4 pM | 363 nM |
| Me-Y[Aib]EGTFISDYSIAK([γGlu-γGlu-γGlu-C15 diacid])DR[Aib]AQ[Aib]NFVNWLLAQSPSSGAPPPS-NH2 [Compound 18] | 0.2 pM | 1000 nM |
| [NMeY][Aib]EGTFISDYSIAK([G2E3-C15 diacid])DR[Aib]AQ[Aib]NFVNWLLAQK-NH2 [Compound 30] | 0.1 pM | 442 nM |
| Me-Y[Aib]EGTFISDYSIAK([AEEA-AEEA-γGlu-γGlu-C15 diacid])DR[Aib]AQ[Aib]NFVNWLLAQS (not fully specified (residue 1)) [Compound 16] | 0.3 pM | 263 nM |
